Results reported in the Immune Epitope Database (IEDB).
pKd: −log10 of the molar value.

Legend:
HLA-A*02:03 = test: IEDB peptide-MHC binding, purified MHC/competitive/fluorescence; filed as Kd, often an IC50 or EC50 that approximates it; ≥ and ≤ were set here for values at or beyond the usual limits of such assays
HLA-A*02:01 [1] = test: as above; conditions: source organism: Human immunodeficiency virus 1
HLA-A*02:06 = test: as above; conditions: source organism: Human immunodeficiency virus 1
HLA-A*69:01 [2] = test: as above; conditions: source organism: Human immunodeficiency virus 1
HLA-A*02:11 = test: as above
HLA-A*02:19 = test: as above
HLA-C*15:02 = test: IEDB peptide-MHC binding, purified MHC/direct/fluorescence; filed as Kd, often an IC50 or EC50 that approximates it; ≥ and ≤ were set here for values at or beyond the usual limits of such assays
HLA-B*58:01 = test: as above
HLA-A*24:02 = test: IEDB peptide-MHC binding, purified MHC/competitive/fluorescence; filed as Kd, often an IC50 or EC50 that approximates it; ≥ and ≤ were set here for values at or beyond the usual limits of such assays; conditions: source organism: Escherichia coli B7A
HLA-A*26:03 = test: IEDB peptide-MHC binding, purified MHC/direct/fluorescence; filed as Kd, often an IC50 or EC50 that approximates it; ≥ and ≤ were set here for values at or beyond the usual limits of such assays; conditions: source organism: Listeria monocytogenes serotype 4b str. H7858
HLA-B*27:05 = test: as above
HLA-B*48:01 = test: as above
HLA-A*02:01 [3] = test: as above
HLA-B*39:01 [4] = test: as above; conditions: source organism: Variola virus
HLA-B*40:01 = test: as above
HLA-A*69:01 [5] = test: as above
HLA-A*31:01 = test: as above
HLA-B*15:01 [6] = test: as above
HLA-B*15:09 = test: as above
HLA-B*46:01 [7] = test: as above
HLA-B*15:17 [8] = test: as above; conditions: source organism: Camelpox virus CMS
HLA-A*01:01 = test: as above
HLA-B*57:01 [9] = test: as above
HLA-A*03:01 [10] = test: as above
HLA-A*11:01 [11] = test: IEDB peptide-MHC binding, purified MHC/competitive/fluorescence; filed as Kd, often an IC50 or EC50 that approximates it; ≥ and ≤ were set here for values at or beyond the usual limits of such assays
HLA-B*07:02 = test: IEDB peptide-MHC binding, purified MHC/direct/fluorescence; filed as Kd, often an IC50 or EC50 that approximates it; ≥ and ≤ were set here for values at or beyond the usual limits of such assays
HLA-B*18:01 [12] = test: as above; conditions: source organism: Yellow fever virus
HLA-B*44:02 = test: as above; conditions: source organism: Yellow fever virus
HLA-A*11:01 [13] = test: as above; conditions: source organism: Yellow fever virus
HLA-A*29:02 = test: as above; conditions: source organism: Yellow fever virus
HLA-B*08:02 = test: as above; conditions: source organism: Variola virus
HLA-B*08:01 = test: as above; conditions: source organism: Variola virus
HLA-A*24:03 = test: as above; conditions: source organism: Camelpox virus M-96
HLA-A*26:02 = test: IEDB peptide-MHC binding, purified MHC/competitive/fluorescence; filed as Kd, often an IC50 or EC50 that approximates it; ≥ and ≤ were set here for values at or beyond the usual limits of such assays; conditions: source organism: Taterapox virus
HLA-B*18:01 [14] = test: as above
HLA-A*68:02 = test: as above; conditions: source organism: Taterapox virus
HLA-B*15:17 [15] = test: as above; conditions: source organism: Taterapox virus
HLA-B*39:01 [16] = test: as above; conditions: source organism: Yersinia pestis Nepal516
HLA-B*51:01 = test: as above; conditions: source organism: Yersinia pestis Nepal516
HLA-B*27:03 = test: as above; conditions: source organism: Yersinia pestis Nepal516
HLA-A*26:01 = test: as above; conditions: source organism: Yersinia pestis Nepal516
HLA-B*15:01 [17] = test: as above; conditions: source organism: Yersinia pestis Nepal516
HLA-B*46:01 [18] = test: as above; conditions: source organism: Yersinia pestis Nepal516
HLA-A*02:12 = test: as above; conditions: source organism: Yersinia pestis Nepal516
HLA-B*57:01 [19] = test: as above; conditions: source organism: Yersinia pestis Nepal516
HLA-A*03:01 [20] = test: as above; conditions: source organism: Yersinia pestis Nepal516
[21] = source organism: Human immunodeficiency virus 1
[22] = source organism: Camelpox virus CMS
[23] = source organism: Giardia lamblia ATCC 50803
[24] = source organism: Yellow fever virus
[25] = source organism: Camelpox virus M-96
[26] = source organism: Taterapox virus
[27] = source organism: Yersinia pestis Nepal516

For NTVATLYCV, the pKd (HLA-A*02:03; [21]) was 7.87, the pKd (HLA-A*02:01 [1]) was 6.67 and the pKd (HLA-A*02:06) was ≥ 10.00. The pKd (HLA-A*69:01 [2]) was ≥ 9.00, the pKd (HLA-A*02:11; [21]) was 9.15 and the pKd (HLA-A*02:19; [21]) was 7.97.

For VSTAIAALF, the pKd (HLA-C*15:02; source organism: Mycobacterium tuberculosis H37Ra) was 6.35 and the pKd (HLA-B*58:01; source organism: Mycobacterium tuberculosis) was 7.55.

Sequence ITPTIYLLL has a pKd (HLA-C*15:02; source organism: Escherichia coli B7A) of 6.40 and a pKd (HLA-A*24:02) of 9.15.

Sequence FTYAPAGMY has a pKd (HLA-A*26:03) of 6.94.

VSEKYTDMY was tested, and the pKd (HLA-B*27:05; [22]) was ≤ 4.70, the pKd (HLA-B*48:01; [22]) was ≤ 4.70 and the pKd (HLA-A*02:01 [3]; [22]) was ≤ 4.70. For the same sequence, the pKd (HLA-B*39:01 [4]) was ≤ 4.70, the pKd (HLA-B*40:01; [22]) was ≤ 4.70 and the pKd (HLA-A*69:01 [5]; [22]) was ≤ 4.70. The pKd (HLA-A*31:01; [22]) was ≤ 4.70, the pKd (HLA-B*15:01 [6]; [22]) was ≤ 4.70 and the pKd (HLA-B*15:09; source organism: Variola virus) was ≤ 4.70. The pKd (HLA-B*58:01; [22]) was ≤ 4.70, the pKd (HLA-B*46:01 [7]; [22]) was ≤ 4.70 and the pKd (HLA-B*15:17 [8]) was 6.90. For the same sequence, the pKd (HLA-A*01:01; [22]) was 8.48, the pKd (HLA-B*57:01 [9]; [22]) was ≤ 4.70 and the pKd (HLA-A*03:01 [10]; [22]) was ≤ 4.70. The pKd (HLA-A*11:01 [11]; source organism: Vaccinia virus) was ≤ 4.70.

Sequence RAIREYFQF has a pKd (HLA-C*15:02; [23]) of 5.67, a pKd (HLA-B*58:01; [23]) of 8.30 and a pKd (HLA-B*57:01 [9]; [23]) of 7.32.

With FHERGYVKL the pKd (HLA-B*27:05; [24]) was ≤ 4.70, the pKd (HLA-B*48:01; [24]) was ≤ 4.70 and the pKd (HLA-A*02:01 [3]; [24]) was ≤ 4.70. The pKd (HLA-B*40:01; [24]) was ≤ 4.70, the pKd (HLA-A*69:01 [5]; [24]) was ≤ 4.70 and the pKd (HLA-B*07:02; [24]) was ≤ 4.70. The pKd (HLA-A*31:01; [24]) was ≤ 4.70, the pKd (HLA-B*18:01 [12]) was ≤ 4.70 and the pKd (HLA-B*15:01 [6]; [24]) was ≤ 4.70. The pKd (HLA-B*44:02) was ≤ 4.70, the pKd (HLA-B*15:09; [24]) was 7.15 and the pKd (HLA-B*58:01; [24]) was ≤ 4.70. For the same sequence, the pKd (HLA-B*46:01 [7]; [24]) was ≤ 4.70, the pKd (HLA-A*01:01; [24]) was ≤ 4.70 and the pKd (HLA-A*11:01 [13]) was ≤ 4.70. The pKd (HLA-A*29:02) was ≤ 4.70, the pKd (HLA-B*57:01 [9]; [24]) was ≤ 4.70 and the pKd (HLA-A*03:01 [10]; [24]) was ≤ 4.70.

For SYVFNFHKY, the pKd (HLA-A*02:01 [3]; [25]) was ≤ 4.70, the pKd (HLA-A*69:01 [5]; [25]) was ≤ 4.70 and the pKd (HLA-B*07:02; [25]) was ≤ 4.70. For the same sequence, the pKd (HLA-A*31:01; [25]) was ≤ 4.70, the pKd (HLA-B*08:02) was ≤ 4.70 and the pKd (HLA-B*15:01 [6]; [25]) was ≤ 4.70. The pKd (HLA-B*08:01) was ≤ 4.70, the pKd (HLA-B*58:01; [25]) was ≤ 4.70 and the pKd (HLA-A*01:01; [25]) was ≤ 4.70. The pKd (HLA-A*24:03) was 7.26, the pKd (HLA-B*57:01 [9]; [25]) was ≤ 4.70 and the pKd (HLA-A*26:02) was 5.39. The pKd (HLA-B*18:01 [14]; [26]) was ≤ 4.70, the pKd (HLA-A*68:02) was ≤ 4.70 and the pKd (HLA-B*15:17 [15]) was ≤ 4.70. The pKd (HLA-A*11:01 [11]; [26]) was 5.59.

In the case of SMLCWLGMT, the pKd (HLA-A*02:03; [27]) was ≤ 4.70, the pKd (HLA-B*39:01 [16]) was ≤ 4.70 and the pKd (HLA-B*51:01) was ≤ 4.70. The pKd (HLA-B*27:03) was ≤ 4.70, the pKd (HLA-A*02:11; [27]) was 7.29 and the pKd (HLA-A*26:01) was ≤ 4.70. For the same sequence, the pKd (HLA-B*18:01 [14]; [27]) was ≤ 4.70, the pKd (HLA-B*15:01 [17]) was ≤ 4.70 and the pKd (HLA-A*02:19; [27]) was ≤ 4.70. For the same sequence, the pKd (HLA-B*46:01 [18]) was ≤ 4.70, the pKd (HLA-A*02:12) was 6.24 and the pKd (HLA-B*57:01 [19]) was ≤ 4.70. The pKd (HLA-A*03:01 [20]) was ≤ 4.70.
